# Test results taken from PMC3817407.
# T1: ECF25_1645
# T1 chain: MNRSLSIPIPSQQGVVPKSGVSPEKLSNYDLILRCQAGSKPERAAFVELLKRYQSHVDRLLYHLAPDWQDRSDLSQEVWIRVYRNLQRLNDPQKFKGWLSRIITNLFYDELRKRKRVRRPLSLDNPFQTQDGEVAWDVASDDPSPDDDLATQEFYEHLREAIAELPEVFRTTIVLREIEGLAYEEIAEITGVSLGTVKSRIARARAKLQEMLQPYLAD
# T2: ECF33_423
# T2 chain: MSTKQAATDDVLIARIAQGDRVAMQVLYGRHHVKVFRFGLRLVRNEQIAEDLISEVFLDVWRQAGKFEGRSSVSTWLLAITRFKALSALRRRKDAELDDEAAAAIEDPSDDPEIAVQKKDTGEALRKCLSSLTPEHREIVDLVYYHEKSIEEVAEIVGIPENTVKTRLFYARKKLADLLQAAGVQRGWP
# T3: ECF02_915
# T3 chain: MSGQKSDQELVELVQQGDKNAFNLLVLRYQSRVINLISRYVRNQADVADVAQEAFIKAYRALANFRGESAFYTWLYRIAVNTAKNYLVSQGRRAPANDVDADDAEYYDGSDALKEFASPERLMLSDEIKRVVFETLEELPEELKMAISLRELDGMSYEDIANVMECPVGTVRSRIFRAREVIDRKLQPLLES
# T4: ECF15_524
# T4 chain: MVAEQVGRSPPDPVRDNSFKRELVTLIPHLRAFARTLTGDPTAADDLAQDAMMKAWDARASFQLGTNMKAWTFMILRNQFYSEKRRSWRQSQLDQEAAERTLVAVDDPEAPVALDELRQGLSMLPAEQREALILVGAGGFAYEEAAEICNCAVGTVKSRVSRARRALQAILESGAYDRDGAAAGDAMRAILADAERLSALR
# T5: ECF03_1244
# T5 chain: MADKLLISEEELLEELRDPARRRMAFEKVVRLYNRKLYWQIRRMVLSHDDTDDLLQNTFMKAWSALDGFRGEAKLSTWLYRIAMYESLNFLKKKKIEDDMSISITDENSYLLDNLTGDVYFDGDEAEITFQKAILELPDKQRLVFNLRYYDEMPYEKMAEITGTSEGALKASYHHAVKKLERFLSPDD
# T6: ECF34_1384
# T6 chain: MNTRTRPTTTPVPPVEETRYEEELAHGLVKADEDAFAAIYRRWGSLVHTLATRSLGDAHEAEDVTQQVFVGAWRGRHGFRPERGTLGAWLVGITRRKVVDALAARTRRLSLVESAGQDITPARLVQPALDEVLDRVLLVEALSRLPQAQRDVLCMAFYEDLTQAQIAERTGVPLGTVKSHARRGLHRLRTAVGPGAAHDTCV
# T7: ECF14_3200
# T7 chain: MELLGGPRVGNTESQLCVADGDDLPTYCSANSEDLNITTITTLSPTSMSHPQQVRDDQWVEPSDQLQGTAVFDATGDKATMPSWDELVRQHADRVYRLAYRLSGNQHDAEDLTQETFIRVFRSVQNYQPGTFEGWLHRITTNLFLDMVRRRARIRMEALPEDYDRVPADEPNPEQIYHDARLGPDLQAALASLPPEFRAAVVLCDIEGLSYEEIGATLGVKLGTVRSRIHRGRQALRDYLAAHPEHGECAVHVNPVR
# T8: ECF38_1322
# T8 chain: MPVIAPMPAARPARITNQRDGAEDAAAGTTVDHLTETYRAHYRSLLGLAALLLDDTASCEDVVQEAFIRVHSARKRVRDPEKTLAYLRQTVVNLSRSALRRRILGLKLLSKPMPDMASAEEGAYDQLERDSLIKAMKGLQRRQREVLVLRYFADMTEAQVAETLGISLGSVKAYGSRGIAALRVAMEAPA
# T9: ECF31_34
# T9 chain: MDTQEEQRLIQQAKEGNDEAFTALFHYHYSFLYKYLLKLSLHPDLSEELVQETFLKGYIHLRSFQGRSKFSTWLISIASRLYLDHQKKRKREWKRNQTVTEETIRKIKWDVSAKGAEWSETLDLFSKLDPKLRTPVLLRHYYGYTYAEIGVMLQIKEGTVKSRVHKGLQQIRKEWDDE
# T10: ECF30_35
# T10 chain: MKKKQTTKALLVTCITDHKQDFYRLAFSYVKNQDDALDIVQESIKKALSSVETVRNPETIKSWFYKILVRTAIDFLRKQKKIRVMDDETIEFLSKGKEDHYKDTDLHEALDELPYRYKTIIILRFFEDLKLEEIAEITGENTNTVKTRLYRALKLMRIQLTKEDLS
# T11: ECF20_992
# T11 chain: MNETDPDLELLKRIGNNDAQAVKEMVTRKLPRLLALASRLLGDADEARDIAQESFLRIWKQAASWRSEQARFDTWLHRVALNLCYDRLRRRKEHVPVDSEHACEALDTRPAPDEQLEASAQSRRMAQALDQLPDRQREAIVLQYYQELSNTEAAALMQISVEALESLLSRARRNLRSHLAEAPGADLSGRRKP
# T12: ECF11_3726
# T12 chain: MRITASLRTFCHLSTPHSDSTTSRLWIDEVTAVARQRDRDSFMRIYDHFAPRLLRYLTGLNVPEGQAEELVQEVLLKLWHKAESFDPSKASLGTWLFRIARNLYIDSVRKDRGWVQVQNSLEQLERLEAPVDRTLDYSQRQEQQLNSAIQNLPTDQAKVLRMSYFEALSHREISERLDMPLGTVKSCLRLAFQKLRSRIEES
# T13: ECF37_2513
# T13 chain: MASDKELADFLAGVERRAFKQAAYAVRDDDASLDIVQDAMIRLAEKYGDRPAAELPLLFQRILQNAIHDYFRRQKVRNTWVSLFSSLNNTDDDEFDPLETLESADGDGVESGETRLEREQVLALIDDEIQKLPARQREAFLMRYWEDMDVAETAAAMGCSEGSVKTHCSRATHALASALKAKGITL
# T14: ECF14_1324
# T14 chain: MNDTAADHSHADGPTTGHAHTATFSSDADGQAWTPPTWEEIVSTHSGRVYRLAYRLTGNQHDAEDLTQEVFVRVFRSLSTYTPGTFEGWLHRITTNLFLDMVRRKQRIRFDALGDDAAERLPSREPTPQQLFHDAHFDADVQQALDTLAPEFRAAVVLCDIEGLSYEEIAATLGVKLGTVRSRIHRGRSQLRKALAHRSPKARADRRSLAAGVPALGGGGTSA
# Key:
# ECF25_1645 = molecular target: T1, ECF25_1645
# ECF33_423 = molecular target: T2, ECF33_423
# ECF02_915 = molecular target: T3, ECF02_915
# ECF15_524 = molecular target: T4, ECF15_524
# ECF03_1244 = molecular target: T5, ECF03_1244
# ECF34_1384 = molecular target: T6, ECF34_1384
# ECF14_3200 = molecular target: T7, ECF14_3200
# ECF38_1322 = molecular target: T8, ECF38_1322
# ECF31_34 = molecular target: T9, ECF31_34
# ECF30_35 = molecular target: T10, ECF30_35
# ECF20_992 = molecular target: T11, ECF20_992
# ECF11_3726 = molecular target: T12, ECF11_3726
# ECF37_2513 = molecular target: T13, ECF37_2513
# ECF14_1324 = molecular target: T14, ECF14_1324
Binder,fold repression (ECF25_1645),fold repression (ECF33_423),fold repression (ECF02_915),fold repression (ECF15_524),fold repression (ECF03_1244),fold repression (ECF34_1384),fold repression (ECF14_3200),fold repression (ECF38_1322),fold repression (ECF31_34),fold repression (ECF30_35),fold repression (ECF20_992),fold repression (ECF11_3726),fold repression (ECF37_2513),fold repression (ECF14_1324)
AS38_1322 (protein) MSDGNDARPDARDGHDPGSDARDGHDPGSHARDGHDPGAGPFDGHGPGSDAGDGDDAGPDARDGHGAPAGPAGREQRKHPHDTHDMHDTHDTHAGKGTVNHGPAAQGPDAPGADGPATDEAALRAMMQRAVREMEPSDGTLEHLRRAVPARRARKRQALVGAAAAALFLGTAVPALVHVSNATGAGADPSVAGNASQAQGGASQGKDPAGGQSGVAGTGDTPEDRDKADPKETPGGKEPGAATGAPPSGVPSASSPADVPACAPGSLGPAVASSAEPDSTGVVYGSFRVTNVSSDGCTVTGPGTVVTASLGAAEATRIGTARHAAGDAAAGLPDPSLETASLALAPGAAYEVQFAWVPSETCPTTGGTTGGGSGGPSPDPSPTADTTAAGGTSAGGGEAGPTTQLITEDGPAEGSVSVTYTPEGGSGSATATVSNACAGTVYWTGLLADSGSGA,3.94,3.68,3.62,4.95,4.75,6.19,8.3,54.2,4.78,3.08,3.28,11.2,6.38,8.93
AS37_2513 (protein) MSSAPATKEEVDFALKVRRALDERAASLPDATTDRLAAARRAALARKKPDAAIVLVPALAGSAGTLELRPPGEPRKSLARRLARAWPLALLLAGLIGIAYWEDMQRTAELADIDAAMLSDNLPLTAYLDHGFNAYLSHTH,3.92,3.3,2.67,4.06,3.44,6.47,11.4,2.73,3.08,3.08,5.31,11.6,13.5,13.8
